Laboratory results taken from publication PMC10808743, “Generation of human TMEM16F-specific affibodies using purified TMEM16F” (Frontiers in Molecular Biosciences, 2023).

Molecular target: the molecule itself
Assay: SEC; 40 μg TMEM16F (0.4 mg/mL) incubated with 40 μg #50 affibody (0.5 mg/mL) for 2 h at 4°C, separated on Superose 6 FPLC; fractions around 14.8 mL analysed by SDS-PAGE and Western blot

B1: human TMEM16F (hTMEM16F) variant 1, SBP-tagged, purified (natural protein, UniProt Q4KMQ2-1 1-910, looked up)
chain: MKKMSRNVLLQMEEEEDDDDGDIVLENLGQTIVPDLGSLESQHDFRTPEFEEFNGKPDSLFFNDGQRRIDFVLVYEDESRKETNKKGTNEKQRRKRQAYESNLICHGLQLEATRSVLDDKLVFVKVHAPWEVLCTYAEIMHIKLPLKPNDLKNRSSAFGTLNWFTKVLSVDESIIKPEQEFFTAPFEKNRMNDFYIVDRDAFFNPATRSRIVYFILSRVKYQVINNVSKFGINRLVNSGIYKAAFPLHDCKFRRQSEDPSCPNERYLLYREWAHPRSIYKKQPLDLIRKYYGEKIGIYFAWLGYYTQMLLLAAVVGVACFLYGYLNQDNCTWSKEVCHPDIGGKIIMCPQCDRLCPFWKLNITCESSKKLCIFDSFGTLVFAVFMGVWVTLFLEFWKRRQAELEYEWDTVELQQEEQARPEYEARCTHVVINEITQEEERIPFTAWGKCIRITLCASAVFFWILLIIASVIGIIVYRLSVFIVFSAKLPKNINGTDPIQKYLTPQTATSITASIISFIIIMILNTIYEKVAIMITNFELPRTQTDYENSLTMKMFLFQFVNYYSSCFYIAFFKGKFVGYPGDPVYWLGKYRNEECDPGGCLLELTTQLTIIMGGKAIWNNIQEVLLPWIMNLIGRFHRVSGSEKITPRWEQDYHLQPMGKLGLFYEYLEMIIQFGFVTLFVASFPLAPLLALVNNILEIRVDAWKLTTQFRRLVPEKAQDIGAWQPIMQGIAILAVVTNAMIIAFTSDMIPRLVYYWSFSVPPYGDHTSYTMEGYINNTLSIFKVADFKNKSKGNPYSDLGNHTTCRYRDFRYPPGHPQEYKHNIYYWHVIAAKLAFIIVMEHVIYSVKFFISYAIPDVSKRTKSKIQREKYLTQKLLHENHLKDMTKNMGVIAERMIEAVDNNLRPKSE
notes: Human TMEM16F variant 1 (anoctamin-6), cDNA clone NM_001025356.2 bought from Genescript; called 'purified whole TMEM16F protein' in the discussion; In one BLI experiment the same protein was incorporated into nanodiscs (MSP 2N2, Addgene #29520; POPC:POPG 3:1; TMEM16F:MSP:lipid 1:5:100) under detergent-free conditions; also called purified human TMEM16F protein; TMEM16F-nanodisc complex (when …)
stoichiometry N: 2
